From the supplement of paper PMC12636428

System: Saccharomyces cerevisiae
Assay: transcriptional activation domain activity (GFP:mCherry ratio, weighted mean of sorted bins, harmonized to initial dataset scale) (arbitrary fluorescence ratio units); higher = stronger transcriptional activation
Conditions: beta-estradiol 1 µM; induction time 4 h
Procedure, shortened: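 For this assay, yeast diploids with a GFP reporter carried barcoded protein tiles at URA3, each fused to an estradiol-inducible synthetic transcription factor. Induction was a 1:5 dilution into SC with 1 uM beta-estradiol for 4 hours at 30 °C, followed by sorting into 8 bins by GFP:mCherry ratio and barcode sequencing. Tiles under 50 reads were dropped, and activation activity was calculated as the read-weighted mean of bin median fluorescence, averaged across barcodes and linearly mapped onto the initial dataset scale.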

Sequence	transcriptional activation domain activity
EPAAEGAAGADKPAEEAKPAEDKPAETKPEETAEGAKTEETPAPAESAAAPAA	37800
MLFPCGVLFLSVFSISDTYVAFFFFFFFSFGWSFVSIGFLLFTIFFLGISFFF	32300
LFICRYTSDGQFIGNQNGCYNLVPVYDWIKRCVISIFVVFFIAFLPLFLQELC	56900
FFFFHFFFFWSSLRHIFQVLILGALGFLFFHFSFFIFHFSFFIFHFHFLFFFS	50400
ASNTTEVQLFINGSYVLLDTVCTRVLLYPDQILSNFRREDIALLCLQFWLFFI	28700
EDTVHSVRVKAHRMKKSESGETGWAELGVGVLRLKTHKETASRRMLLRNSGNG	58000
VLLQNLCRMVITRLGDWTLFKAFVLCCCLYRLSFFHDLFLFLYTFSFPLLCFT	57100
ELNEYLDLFKNNFLPHFPIIHPSLLDLDLDSLQRYTNEDGYDDAENAQLFDRL	117000
MATLLGGFWFLVLCSIMLSALLTPLILLTGSLILLSFGSFPSLPHWLLIIIVH	62400
LTEHSNVNSVIWTNDLLNLNFTNILNMGLYINPKNLIPISGNNNNNKSNEEDD	62300
FPPLFVSPLRLRYPFCGILFNIDTLFFRFLLVHIWLPFFCTYLYPYLLPFHWA	74200
ELWHSLYMLFKTYWCRLLHYALSLVLLCSFIVRLVSVIAILDSKRCGLTLFAA	73200
SDEEEAEVIPAKKARGKKAPVKQEEIQSDEEVLTAKKPAKQARGKKAPAAAVK	30600
VGVWIWVRVDLLSYRKAGFIDWLFTDVPPKLALIAIFNVHILHTLLLALQWYT	55400
MADPQEDNTAPGTKRRRLRGSCDKCKQRKIRCDSSEMPGNRCSNCIAFSSECT	31600
FVWILETLNTGFSAHAIEYFAIYNKGNMMMLWSVPWTISVSNNLLCSTLGLNH	32200
PAAQFLTEKRDRGGGGKGGEEGGGGSGKKVYKGAAMPNRYGIRPGHRWDGVDR	28200
NLNSLNQSEEEGHIGRWPPLGYEAVSAEQKSAVQLRESQAGASISNNMNFKAN	48200
RAAVTLCSFFCFFFSWTYSSLFLLSFFIWTGFGRSYGVFFFFFFFFFFFFGGF	19400
AAFFFALLWVVFRSSWPSPLFFFLFFFVGLVLLAFLAFGFPFARFLLPLGVFF	26000
YTLILSLFYSLAPVLFRLSSAAFFNISLLTGSFWGVAIGVKVFHLSIHWMYPI	42600
MCCLVLSLALLGRHGGMNIFFLCFYVGSFVFIFLRVLVVRLLLLLLLCYYQAL	70200
MSLLLCFRVLIFIYPLRVSFLVCSWLYILLFYMSLFHSSVICPHVKMNLFISL	43900
SSSTVVLAFGTDEKKIKEVGDALKTKLSVKGGGKGPRWSGKFAGVWKEDSAIE	< 6570
MEDAADDGAASTKKAKVSKKRKKDIESDGEQEKPAKTPKTKLKLNNKTPKEAS	48700

Sequence	transcriptional activation domain activity
MMELEGWDGGPYIWVDLVILFWLFVILLDWFFLLAIFSTVRGSPGLVGVFFFF	52100
IAILRLYSEPDVDLLRLSSQVLAASLLLDDHFICDIKNIRSVVAMIPRVLTLP	46800
VASVLVFICHYTECNWGDLTHFYGVNKEHPGSFIQMPYIRLIYSGRPMVHIFF	29900
FICLLLSTTLRRLRWCLIRYIRNNYMEVCVCLVTIGVVAFSRLSWTLWVGAYV	50000
MNPHFLLPSIVSFQFSCFFGCLVVYLSVFFSRFIFILTFPSIYFSSTVFFFVS	37100
RRWQWYWGCFVCACALISLFLNVEVDRYRVQQLPLIVTSFFWYLMCMGTTCVV	44600
LGAIIYIYLCCHGSLTMVDLCTLLALNILNNVDGQCTRILCWWVSFAWCMYPG	58800
AESQLTLRAIVSSKEAGVIIGKGGKNVADLRDETGCKAGVSKVVQGVHDRVLT	22300
EGGEGGSGSGSGGNAKTRRKGRRRGSSRDGAGAGAGAGAGEGAGGEVGRSKKK	7430
WWLVKVTVSVLWVLDTFDMCLIFHILYWYLIINYGNPLSLANPIWSIILHVLV	64800
RDKDDRRRHRDRDDQSSRSHRHHRHRDGDSDRDGDGHRHKRSRHSKAEEAKPS	28800
MYILILIFFLSFFLSFLNGSILYLGIVLLPCAYRRVYTVVCLVFTIQIVLRIK	61400
RVVVVTDAFQKMDHFYWSLQAWLMYRFDALSACSTFAMTLLALYDDLSPGLTA	83700
CFICYGYIVIRWWIEADRDPELIHQALVMIWYPIAYFVEIFPQSMVRVLNMHA	52600
MSSPNEKMDVDRASPDRRSKSSRNHSTETHRTKRSHRSRSRGGERDKERRDRR	34300
LHFMYVVAIKDRKAWVGYSAAELCMVGFWNLIVVWLKLLVPWRFFRLWALADG	61900
IRLLISKHWLPVLFSFRGFMELTTTVPFLLSTYIPNGRYLYVPYFIRSWVLLL	72800
RLAELCLLIDPRLLVKLAGVMARYIESMATYRAHPRQIYNRQCSVFNTSLKLF	62200
AEEEEDAEDEVVEEKIPAKRGRKPRGEKIEEVSSPAAAAPVRGKKAAAAAAKP	24200
FFHVTIRVASQSCGIAFGILGFSNFRVFLAYLILGAEGYFTLVLCAFRFLISW	61100
DNMSLLNLPILEETVSSGQDDKVEPDEEDIWNYLPSSSSQQEDSSRALKKNTN	20900
GKPVALRTSTRVKDVSGDGIVTLESGEQISADVVVGADGVHSRTRYAIPGSAG	52400
EDCDFLGDDTCSIVNHINCQHGINFDIQFANPDSFLPGSISKEKHHLLHCPNP	77900
MHYIGGYLVLFYFFLFLFFFYFFFFSPFFYFLPFLFFLFFSIPYFFFFAPFVS	39700
FILGYYWGDARLFGLSVRFMSLFSWFRVVHRVLPRLLPMRFKGPGKYVVTYDA	58500

Sequence	transcriptional activation domain activity
NQGSGSKTGGEVDLVGEREEVMRSVHDSRAQLSEDYEYERRNISLAVPLGRGQ	41000
VLFSQRRRWINSTVHNLLELVILPELCGFCCFSMRFFVFIDLLGTILTYLVVV	61100
EKQKKKRKRGKRRRRRRNEKEEKEGEEEEEEKQEAKEEAKEEAKEEAKKKEKK	24600
LIHVVNLAQVLAVLIHRTVYGLLPIFEVMSCAIFPFLVSMWHIAFLLMYTVML	45700
ISAQEFSRNFTEDVDESLQSEIDLMNYDNEALNQLMAIDLDKLLGIFPNLSNF	140000
SIEDMTGWKLLHGDVFRAPPNGNILAPLVGSGCQLVYMATGLLMLSCLGILNP	41600
SVCHRAGEGDEEVEDEEEGEESDEEEEDGDDEKTADGGRAASARKGRDAGAGA	13000
PFVTRCQRNIRIACLICFFFTYSLFHLAFYVGLERRNVPVPLGNHFWSVYGFA	38200
RTILLASYIFSNIFVCLIVLNDSLKILWWLGDSYWHKIWFFRIWLWANSISFL	74800
TEETPHDLPKNTAKGRDEEDFPLDYFPVSVEYPTEENAFDPFPPQAFTPAAPS	42500
VHLGVLFTLSIPYVRLWLIPRLFVCIFVRAFLFLLLFSGIVYPEFFFFFFFLR	40800
EGEAPKAEEEEEKDAAPDGEGEQPAEADPEEEERQRRAAIAARMARLGGARLG	14200
MAERNLTLFSSFFFFLLFFFFFFFFFLEDVFLFFLRMLFTFVGSWFFFFFSYL	7100
PPPPPPPGAMGGLPPPPPPPPPPPGGPGGGPPPPPPPPPGGPGGPPPPPPPPG	35100
DPIRYLSTMDLGYCVGDKIIGSVLCYKQPIVLLILMYFTDQILFFLDTYLWYI	40600
TAVLMQLINLTVFICLASFGSLVFATWLPLIFQYYAIHLRDLLLHDASLIVNW	39100
MLFLPSYSFSVFLFLFLLFALTVQVCLFLFTTWLVSCFDMYVFVWVGVCLCAR	47700
TLPQEDTQSTEDTKVEKKLVIASLLSRMLIPTIIMAPLLALTAKFVPVSILDD	52400
IARPISFFVLGASAAFTTIRALGPSTHPLISVNYFSLWCTFVSLLALLLCPLL	58700
GFRFAVAVIDNIQTMKHETMGSYVTLIMNMHITQAVAVWFYSCIFTFKLGQAI	62500
TVMVFGSDEKRVKAVGDMLKANLNVKGGGKGTRWSGKRTGVWSDSREGAAVTG	47800
TQLIELNVPMGKVGMVVDNSSDKLEIEDIVVYWSLRSRPVWLVYVRAFLKSII	56200
FGYSPSAVWVFLFCFGQGLISFAFLPFFFYLVSICIIILGGLLFCIWVVYIYQ	28400
SCLMWVVSCALFMCGQLVFFDLNYYWNLTLVSYFLELSIVLVLMFMKLWLSKR	30400
